Assay: soluble on expression in E. coli; label from the status in PepcDB or PDB records

Sequence | soluble on expression in E. coli
MGSDKIHHHHHHMNFQIVINNIQHIGYAELDVDLNASGIICIVGKNGVGKTTLIKAILNLKSADTFSRTASPGIFKANSSMRCTYGENSYEFSFDSDINDLNSRSPIPEELKSVIDVELPMPFGQRFNNYQNIMSADMDIRTALILGEYEVPVELISFLSDIYKTNKFNGLVEVSAKGGSYYCIPLDDDRYVREDHLSSGEFFLISLYRKIKGRSKFIVIDEIDISLDAAAQAHLIGWLRRFCTTEQVKVVFTTHSLALMRTLKDGELFYMEESEGKVSVIPSSYNYIKSVLFGFKGWDRYILTEDAMLKSLLEYVLANYCSGLFFSYQIIHVGGGSNVVDLMRQNSTEGFFSTPENVISVLDGDQAEYRYARRPNVYCIPFLSVEKAIFAEYKAGRFLPELAPDPRFDTPKNFCSAIGRDRHATEADIIKYLCDSYPTEVRRFAQTLSDFLS | not soluble
SEQETRGANEAIDFNDELRNRREKLAALRQQGVAFPNDFRRDHTSDQLHEEFDAKDNQELESLNIEVSVAGRMMTRRIMGKASFVTLQDVGGRIQLYVARDSLPEGVYNDQFKKWDLGDIIGARGTLFKTQTGELSIHCTELRLLTKALRPLPDKFHGLQDQEVRYRQRYLDLIANDKSRQTFVVRSKILAAIRQFMVARGFMEVETPMMQVIPGGASARPFITHHNALDLDMYLRIAPELYLKRLVVGGFERVFEINRNFRNEGISVRHNPEFTMMELYMAYADYHDLIELTESLFRTLAQEVLGTTKVTYGEHVFDFGKPFEKLTMREAIKKYRPETDMADLDNFDAAKALAESIGITVEKSWGLGRIVTEIFDEVAEAHLIQPTFITEYPAEVSPLARRNDVNPEITDRFEFFIGGREIGNGFSELNDAEDQAERFQEQVNAKAAGDDEAMFYDEDYVTALEYGLPPTAGLGIGIDRMIMLFTNSHTIRDVILFPAMRPQK | soluble
HTHWGYTGHDSPESWGNLSEEFRLCSTGKNQSPVNITETVSGKLPAIKVNYKPSMVDVENNGHTIQVNYPEGGNTLTVNGRTYTLKQFHFHVPSENQIKGRTFPMEAHFVHLDENKQPLVLAVLYEAGKTNGRLSSIWNVMPMTAGKVKLNQPFDASTLLPKRLKYYRFAGSLTTPPCTEGVSWLVLKTYDHIDQAQAEKFTRAVGSENNRPVQPLNARVVIE | soluble
MENFPIISLDKVNGVERAATMEMIKDACENWGFFELVNHGIPREVMDTVEKMTKGHYKKCMEQRFKELVASKALEGVQAEVTDMDWESTFFLKHLPISNISEVPDLDEEYREVMRDFAKRLEKLAEELLDLLCENLGLEKGYLKNAFYGSKGPNFGTKVSNYPPCPKPDLIKGLRAHTDAGGIILLFQDDKVSGLQLLKDGQWIDVPPMRHSIVVNLGDQLEVITNGKYKSVMHRVIAQKDGARMSLASFYNPGSDAVIYPAPALVEKEAEENKQVYPKFVFDDYMKLYAGLKFQAKEPRFEAMKAMETDVKMDPIATV | soluble
MPDMANVESFDLDHTKVKAPYVRLAGVKTTPKGDQISKYDLRFLQPNQGAIDPAAIHTLEHLLAGYMRDHLEGVVDVSPMGCRTGMYMAVIGEPDEQGVMKAFEAALKDTAGHDQPIPGVSELECGNYRDHDLAAARQHARDVLDQGLKVQETILLERGSHHHHHH | soluble
MVWQREKLLQVNEIGYRDIDAGVPMQRDTLFRIASMTKPVTVAAAMSLVDEGKLALRDPITRWAPELCKVAVLDDAAGPLDRTHPARRAILIEDLLTHTSGLAYGFSVSGPISRAYQRLPFGQGPDVWLAALATLPLVHQPGDRVTYSHAIDVLGVIVSRIEDAPLYQIIDERVLGPAGMTDTGFYVSADAQRRAATMYRLDEQDRLRHDVMGPPHVTPPSFCNAGGGLWSTADDYLRFVRMLLGDGTVDGVRVLSPESVRLMRTDRLTDEQKRHSFLGAPFWVGRGFGLNLSVVTDPAKSRPLFGPGGLGTFSWPGAYGTWWQADPSADLILLYLIQHCPDLSVDAAAAVAGNPSLAKLRTAQPKFVRRTYRALGL | not soluble
MKIDISDILKHSGASLRLDFSESIKINDFIAEDFDFAKPVTFKGTLVNAGGIIKLDGELWADYRAKCSRCLKDIESKMHIDVKENFVEEGSNKTDEEYYTYHGKFLELEKVMIDNIILNLPAKQVCDEACKGYCPKCGADLNNDECKCVNEDIDPRLEVFKNFFTDN | soluble
RRRPLSCDAASQAGSNYPRCWNCGGPWGPGREDRFFCPQCRALQAPDPTRDYFSLMDCNRSFRVDTAKLQHRYQQLQRLVHPDFFSQRSQTEKDFSEKHSTLVNDAYKTLLAPLSRGLYLLKLHGIEIPERTDYEMDRQFLIEIMEINEKLAEAESEAAMKEIESIVKAKQKEFTDNVSSAFEQDDFEEAKEILTKMRYFSNIEEKIKLKKIPL | not soluble
MGSDKIHHHHHHVAQDVITQAPLGFGLGLRTQHFDAVLNTEPDIDWFEVLSENYMVAGGKPRYYLKEIGERYPLVMHGVSLSIGSTDPLNMDYLKALKQLANDVQPQWISDHICWTSIHGVNSHDLLPLPYTEETVKHVAQRIKTVQDFLGRRILMENVSSYLSYQDSSMDEWEFVNAVAEAADCLILLDINNIYVSARNHNFNPLDYLNKINPKRVQQFHLAGHSDYGDYVIDTHDHDVPSCVWDLYCAALKRFGGISTMIERDANIPEFYALEAELTIARNIARDTLGKAHPLNAAKNRKNMHEGKVIA | not soluble
MGSDKIHHHHHHMSILNVEHLSHGFGDRAIFEDVSFRLLKGEHIGLVGANGEGKSTFMNIITGRLMPDEGKIEWAKKVRVGYLDQHTALEKGMTIGSVLSSAFDFLYDMENEMNDIYARLGDVDEDEMNKLMEEAGTIQDMLTMHDFYMIDAKVEEVARALGLLDLGLDKDVTDLSGGQRTKVLMGKLLLEKPDILLLDEPTNYLDVEHIEWLKRYLNDYENAFILISHDIPFLNSVVNLIYHMDNKKLDRYVGDYDKFMEVYEMKKAQLEAAYNKQQQEIKELKDFVARNKARVATRNMAMSRQKKLDKMDVIELAAEKPKPEFNFKTARTPGRYIFQTNGLVIGYDDPLSSALDLEMERGQKIVLTGANGIGKTTLLKSILGLIKPLSGSVTLGDYLEIGYFEQEMDQSVTTTCIEEIWNEFPAFSQYEVRSALAKCGLTTKHIESQVRVLSGGEQAKVRLCKLINRETNILLLDEPTNHLDVDAKDELKRALKEYKGSILMVCHEPDFYDGLATDVWDCSKWTTRL | not soluble
MAHHHHHHMDAFRSLTIGTKFSAARNEEAAKLFRNAGKDKGSHGFPDAIGADGAVTLENASDMGSSSLSVPPPSATLNLFGRPTRSHADANAHLGVSAGSDAAAAANTASENKALKAITFKKKRNIWRRNDLQVTGTDLPAPIEHFSDLVRPPLNVPRNVVNNLFARQHKVPTPIQMQAISSLIHHRDVLACAPTGSGKTIAFLVPLFALLKAPDASCGVRALIVTPTAELAQQIEREAFFLMKGQRWKFVQHGQTTKKKDIFIATPGRILSLLEQKLLDLSNVQYLVFDEGDRLWDSRTDFLTVIDRILTACTRTDKVVSLFTATLSEKVEAAARSVMGADPVRIIVHGRRSANTHVKQRLVFCGNELGKVVAMRNLVREGITPPVLVFVQSVERSKELYEEIRMEGLHMAIMHAKMTVEQREETVLQFRLGKIWVLVTTELLARGIDFKNVGTVINFDFPATVDSYIHRVGRTGRAGKEGTAITFFTEDDKERLPPIAKVMQDSGNAVEDWILGIKVDRSTRRRLERTTPQRTIVSTRKRMLVAQQRVQRQYRRLEAEKAAKQASKRSKGCGDCDRDDGDDSTDDA | not soluble
MMSDRDYTLIIDKSGSMSTPDQAGGRSRWEIAQESTLALARKCEQFDPDGITVYLFSGKFKRYDDVTSAKVAQIFLENDPAGTTNLAGVLQDALNNYFQRKAAGKTKPNGETILVITDGEPDDRKAVFETIIHATRQMERDEELGISMIQVGSDAQATKFLKALDDQLQSVGAKFDICDTITLEDLEDMSLADVLMNAITDLEHHHHHH | soluble
GPGSMEDYKAKGNDAFKAKRYQEAIDWYTKAIELDPNGEASGALYSNRAGSWQNLNNFEKAAADSEQCIRLRPDWLKGYFRLGVAMESMVKYDEAQKAFQKALQLSPGNEEVMDKLHAINTKVRERNEKTKSQQCKTPEEAKQLGNSFFKDGKYDQAAEFYTRAIELQTEPVKEKAVYYTNRAACHQQTHMYSLMVDDCNAAIEIDPANVKAYLRRGIAYEGMEKWKLALEDYTKAQSISPGVAGASQGILRCQRVLRS | soluble
MDEKKCWLVVCVQSNREKKTYERLSALGFESFLPLQEETRRWSDRSKKVQRVVIPMVVFARIAPSERISVLRLPSVSRFMVLRGESAPAIIPDAQMERFRFMLDYSEEAVEMCSERIQPGEQVKVIKGPLTGLTGELITMDGKSKVAVRINMLGAAMVEVPVGFVERI | not soluble
MGSDKIHHHHHHARPQEKIKKKEISQSYSVSAGDRLQVENRYGNITVTHWNQNTVAIRVEVECKARSEERAQENLDRIQIETKKIGGIVSAVTTIKKEMNSNSNNESMTINYYIQMPPKLAADLNQKYGNINLPSDNNGNMDIHVKYGNLNAGNFTANAMIEAKYGNIEVGNLQDAQLDLGYVGTAKIRNAKDLTIDSKYSNLDIQDIQSLRMEIKYGNLTIESVSRLDMEIKYSDAKIGTLKDALNVSSLSYSNLKIRNLSPSFSKVNVESHYGNLEVALPAKTSFRIVAENMKYSSCDVNGFNITRKHFDDEDRDKNYTYEINGGKQPTIHFEGNRYGNLKVKAN | not soluble
MGIDKELYKACETALKQCMGVKPGETVLVIADEPEREIGYHLWMKAKELGAEAIYVEILPRKMHGEEPPKPVAEAMKVADVVIAPTSKSITHTLAKKEACERGARVATLPGITREIFVRTMSADYEGMLELTNKIADVLDKGKEVHILTPLGTDLKFSIEGRKARRSTGIYRNPGECGNLPGAEAYIAPLEGTANGRVVIDGSMAGIGVLKEPIEIIVKDGFAEDIRGGEEAEKLREILSRYGKEARNIAEFGVGTNPKARISGNILEDEKVFGTVHIALGSNYDFGGKVKAPVHLDGIIKEPTVLIDGKYLFKDGNLVI | soluble
MEVSTSYCTPAVNFKYGSFQDSDVSMREDDLFRMGSYNSQGYYADGTHLDGSIGEEDETSSGSNDQHMDFEEDDFDMESSMTEDLVDEDEEEEDEEDNDEWTNQKRTDNQNSVAYYAAMEMLRIRFPFQSIAIRISDFCCLQEKDLLNDTMIDFYLNHIVEHVLPDSNGSNVTVLPSIFWHNLSLRQHAFDSEDEKMMSDEQKMDLKFGDLHDFVADFDLQDFDYIVVPVNEWEHWSLAVICHPFTAQARTVIFDSQLTADLNNLQNMATLIESFMKYSYEKRTGNAMPFPLPCILPQRMPQQTNNFDCGIFIAEFARRFLLSPPKDPATISLCFHPLATLL | not soluble
MTMNANIEVRLKSPAHPGGFIKHEIIEPLALSVSNAAEVLGVSRAALSALLNERAHLPPEMALRIEKAFGVSMDTLMRMQNSYDIAQTRKRAEEIKVAPFSGKPIESNSVV | not soluble
MAHHHHHHMVSKTRKQRQKKKAGMQAHDGVLPPVVPSVPKSVHLKKTRPNMKGKMKIRLGLESPIDIYNGFEERKGVIWRCPTCAKACRVVGFCVDCASGVKSKSHAGQLSGRASTKKEAAQTRAPKLRIKEKSRVVKLRRKK | soluble
MGSDKIHHHHHHMRVEEAKYLAKKIMMAGEIPLLVGHFGVGKTDIARDIARETERKLIILVLSQMEPGDLIGLPARTEEKTVFLKPDWWPESGDTILFLDEINRAHRSVRNAIMQLLVDRRIHNHILPEGTWIMAAMNPPEEEYDQADLITDPAFISRFFILEVNPDVSEWLEWAEKNNVSKEVRDFIRDYPEFLFSERSLSLRTSLKPSPRSWYKLSNVLKTLTDDEKEKYGYVIAAGIVGPEAAKAFYDSFFQRVKIPSVESVLFDGKIENLEDIHAANTLVLRIVDFLSKVDVRTLERHLDDVSKNLVRLSEIMPKESFYGVLRFLVDEAQKEGEKSWIFDKILEKMLEREDMRKMVNEL | not soluble

— the DeepSol protein solubility set
